Results as given in the DeepSol protein solubility set.

Assay: soluble on expression in E. coli; label from the status in PepcDB or PDB records

Sequence | soluble on expression in E. coli
MGSDKIHHHHHHMDYPDKMTPAQRAAAKAKGEPADRVACNPNIANGMARIAGYKISQFNDDPEALADAIIKTYRRFGADGARIFTDLFLVSEAMGAKVRKPEDNTADLEEPAINDMSEFDKLKVIDPYTQGRIPVHLRAIEIVRDEIASEVGVTASVVGPFTNAFFLIGVEKMTKMLLKDPESVHKLCEISLQSCIALTDAVLEKGVGVTISEPLSSCTVVSPKHFREFSAPYLKRLIDHIKARTGKLVIHICGITDPIWDDLVEMGVDVLSIDNVADMEKCAETVGDKMVIAGNVDPSAIMYAGSREDVRKATIKCAKQGLKAKKGFMIMSGCSLPVEVPIENIDAMMDTAREMGWPVTEEKLDYLLSFDKYKD | not soluble
MEDESSAKYPYRESMPRAERVSMKALQDEWRHLFITRAEGENNIHNPKIPEDTNDFDDDMPIECNESEEESITGDREVFSVHHNEEDEDQEDSSQICEESEPQELPKLCRRTDKHFKELPSGLINIIKDLSLDISGLYLPQTLLTGRIDLNDEFVASIEVEDAEKSKEILRRRRERPLALRQFSHALSRAMANLRTYHYDVTTEKIERCPMRNSCKGHLKWEQMRKYRAQCKKNFKDPSLATVEDMMSK | not soluble
MAFAGLTDLRLFDNVSHYINELAGEFSPDTAHLHDHNCKCSIVDRLWCDYFGMGTCISREARARRKERKRNIKRLREARNASASPRDPFSNGHRYGHRSRSEGGNGDVRDDIKELIIETLEVIRTLVNNEQEPPQSLLKLNFIADEEKGWTMVVRALIYTIPENDPLGPAVISLFLDECPLPSRESVQTLLLSLGLSSEFVDSKHLPPSWHKNMCIVLGSLAEKMAGSAAVTMFNDKIKGYLMKIICYGLTYFPPNYGKTLKEKNTHCVRMFALLALEKFAQTRENQISICKMFTEMTTHPLIKMEEYLKNEEVSRYWFAKQEGFCAQWALDNIFILESRPYSYETCETSKINAMLNHEDVSEYLKIGPDGLEARCDVSSFESVRCTFEVMDGVWYYEATVLTSGVMQIGLATKRSRFLNHEGYGIGDDASSVAYDGCRQLVWYNAKSHKHEHENWQPGDVIGVLLNIPEGEVVFYLNGTPLKEPETEFLSNRQPSEGVFAAASFMSFQQCRFNFGASRFKYNPGKKFRCFNDFGKLSTEQRTIVPRRLRLELLEKEHIPEDYCTICFAAPGSTTLLPCNHDGFCSDCCNMMDHCPLCRKPIEERIQKTKNNRSFDNVKSPSNSSISAFVRVNSQRKSTRATSAVATHPTDTVIHTGITTANNRDIARRHTQV | not soluble
LSKLTVVETPLEVNLPAGDNRVAVRVTPVSLNAGSLKSDAGARFGGGTSGAAGSQSDKGVGLAVAFERPEEGLKADIGTTPMGFKYTTVAGGASVDRPLGNNPDLRYGLNVSRRPVTDSVTSFAGSTDERSGLSWGGVTANGGRGQLSYDDQTIGGYGYGSWHKLVGNNVKSNTRGEVGGGVYWYLRNAEDSKLTAGLSLMGMSYDNDQSYFTYGHGGYFSPQSFYAIGVPVMWAQRTERFSYQVKSSVGVQHFKQDGAEFFPDDSTLQAASAQRYTGQSKTGIGYNLSAAGEYKLDSSLFMGASLGLDNARDYRQFSGALYLRYMFEDI | not soluble
MSLEEIETDVLVIGGGPGGMSAAINAGKYGAKVLLVDENPFLGGQLVKQTHRFFGSAKERAGTRGIKIAGILEEELNSIENVEVRRETRVFGIYNGEAGAYQRLNDDEGKLLRIKAKKIVVATGAYERTLIFENNDLPGVYGAGGVQTLMNVYGIKPGNMGLIVGSGNVGLILTYQLMQAGVNVAAIVEAMPRIGGYFVHAAKVRRLGVPIYVRHTILKAIGRKSVEGAVIAQLDDRWQPIPGTEKEIKCDFICVAVGLSPTHELLYQAGCEMKFVPELGGIVPLRTRFNETSVKGLYVAGDVAGIEEATAAIMEGRIAGIHAAVTLGYGGEEAKKELDEAVKEIEEFRAGPFGERIVCGLEKCTLESEGHHHHHH | soluble
EREEEPAVQGNPDESLTVEGALEYVELAPQLNLPQQEEDADFHTVAGLIMEELQTIPDVGDFADFHGWRFEVVEKEGQRIERVKITKLP | soluble
GPGSMEAAPAAAAPRLPQAPKRPREESDAPLQESSNGSVPANFSNEASVTTPVAGTELVVDVDQPETNAQASAVDAPRSRSRGLAAVGPGSTSPVAASRSGTDGANNCQPAAAVTTLSSSSASADARRFKQPTLAAYGLVSDTMTLKKEISDRDSHIEELNREVEGLRAEAGRRNDQINFMDGQCRQYQRKLEHFQSVMRQEMLSAAQKDRSEARRVLYQKHFELGQTATWHSNGQTVWMEGDRVRTLFLKLADLTQKREEVEALKKAAQSNVKHLARQEREREDSGAGPDLQDALMAAQMEYQLRASEHAALTNTIADVKLKQTEIEHEKKAFVKEMRRVNDEDTSEFLAIPTIGEGDRYVLMHLLGKGGFSEVWKAFDLVEGRYVACKIHHIQREWPAQTRTHYLRHAQRELDIMRALDHPHLTHLYDVFPRGDNMFISVMEYSNGMDLDTYLKRYRIFKEADARLIFLQVVDVLRYLASLDSPIIHYDLKPANILLHRDDPTILDIKITDFGLSKIIGATREGPSDNPSIELTSQGTGTYWYLPPECFETSSTPRISNKVDIWSAGVIFYQMLFGKRPFAEGESQRRIWQEKLIIQSARTLHFPDTPKVSEEAKDIIRGCLAFNERERCDVFQLSQDPYLFRTSRRSAHKAKSAAPAGVGSSNSPLMPPVTDATPAS | soluble
GNSIASCADEQPHIGNYRLLKTIGKGNFAKVKLARHILTGREVAIKIIDKTQLNPTSLQKLFREVRIMKILNHPNIVKLFEVIETEKTLYLIMEYASGGEVFDYLVAHGRMKEKEARSKFRQIVSAVQYCHQKRIVHRDLKAENLLLDADMNIKIADFGFSNEFTVGGKLDAFCGAPPYAAPELFQGKKYDGPEVDVWSLGVILYTLVSGSLPFDGQNLKELRERVLRGKYRIPFYMSTDCENLLKRFLVLNPIKRGTLEQIMKDRWINAGHEEDELKPFVEPELDISDQKRIDIMVGMGYSQEEIQESLSKMKYDEITATYLLLGRK | soluble
AHHHHHHGSRPKVGVLLKMKREALEELEKYAEVEVIPYPSEEELKNKIHEFDGIIVSPVTKITKDVLEKAERLKVISCHSAGYDHIDVEEATRKGIYVTKVSGLLSEAVAEFAVGLLINLMRKIHYADKLIRRGEWESHVKIWTGFKGIESLYGKKVGILGMGAIGKAIARRLIPFGVELYYWSRHRKVDVESELHATYMDIDELLEKSDIVILALPLTKDTYHIINEERVKKLEGKYLVNIGRGALVDERAITEAIKQGKLKGYATDVFENEPVREHELFKYEWETVLTPHYAGLAVEAQEDVGFRAVENLISIFRGIVPEDLVNKEVLKIRPIESVKML | not soluble
MGSSHHHHHHSSGLVPRGSHELGGRVSGSLAWRVARGETGLERKEILFIPSENEKISKQFHLRYDIVRDRYIRVSDNNTNISGWENGVWKMESIFRKVEKDWNMVYLARKEGSSFAYISWKFECGSAGLKVDTVSIRTSSQSFESGSVRWKLRSETAQVNLLGDKNLRSYNDFSGATEVTLEAELSRGDGDVAWQHTQLFRQSLNDSGENGLEIIITFNDL | soluble
GMDPKHGNLFADVPVGAPDEIFQPLLERKGLKIERIISNGQASPPGFWYDSPQDEWVMVVSGSAGIECEGDTAPRVMRPGDWLHVPAHCRHRVAWTDGGEPTVWLAVHCDAA | soluble
MGSDKIHHHHHHMRYLRADERCLICSLRQAENLLKKTITSPEKRWVIFREVFRIMSEMKWGMKPLEVNGEVHRFIMEYIKEEDPFKEEKRRSNDMAIKLVEMFRPEILNSPDPVYSAAKLAVSGNLIDLGIPGWSVDEIFEKLHEVYERPFDREDFEKFRNVLMNASTLFYVADNAGEIVFDKFFIEVLKMENPSLEVVVAVRGKPIINDATIEDAKYIGLEEIATVISSGVDEPGVMLDKASEEFRKAFFEFDVVISKGQGNFEGLYEEEKKNLFFLLTAKCDFVAEVLNVPLGGKVFISSSSL | not soluble
MDYHSNGNGINGMNGSSRHSADGPSTPTHSGNGHSNGEGNSTYWETAPAEMVELADKYNFTINEGSSIQQEALELRSVIRKDLTKKLKIKSGYSRIKLITSDRRQSEFLRYELSDLNEQIADLQEDLQALEMYNSGAFDEDVMYLDNLEDCDVENGPPSKLVILQLELEKELKVKRGLEQFLRGAPDKSKVHGDSQSLLDDSRAKIAMLRMQIERLSQEAPAVEGEPKTKVELAIDDLIIRFHKEKLIMDGSRNMIRILRSKRKPDSKAVDEAMNSYVIASEKADLIKLALLKYASSLPLEHDHRKYLI | not soluble
MGSDKIHHHHHHMKEKTVAIFNGYYIPHLGGVERYTYNIAKKLTEKGYRVIIITTQHDENLTNEEIQEGIKIYRLPIKNLWKNRYPFLKKNRIYHSLIEKIEAESIDYYVANTRFHLPAMLGVKMAKAKGKEAIVIEHGSSYLTLNNPVLDFMLRKIEQLLIGRVKKDTSLFYGVSNEASEWLKTFDIKAKGVLPNAVAVDEYFNQKIEKDEKKLTISYAGRLIPQMKGVEILLSTFSKLSKERKNLELIIAGDGPLLNEVKRKYSQKNIKFLGYVPYEKVLEIDAKSDVFVLMSRSEGFATAMLEAAMLENVIITTPTVGGARDIMPDETYGYIIENNETKLFETLTKVLDNKEHMRLMQKKISKNVLENFTWEQSAKQFIKVFNELDEK | not soluble
MGDDCSDHSSLCKHCCYEMIRDSIKDYKSGPLYARCPQCFRNISSLTRRKRRLTSEGHDENCPAPMVPMVNAEHSISLCDYTTSMMGGGQVNKGFESSSSLFLCFRKFPIGNYNQKFFVGDSLKNGRIQYRNTKYEYSKKHFRSYKFFMIFQICRSKFQNL | not soluble
MAHHHHHHMSIPLENWGQLKLSVAKPELKSEDGGDVKRDECVLELLALPKGKAKDNPNYVPRPILSIPISAIASASGTTKNDVSLTMRPAATAGAEDLELRSIRFAVPNVCVGYEETEMAGKVILQDIQSSMMQYQEQFLQRHGSGGQGGKLLALAAMGSGQAKHTDEVVVATFDDVLLSYPSGKYKIVISNYNVVLEDKKKGTSSGLLSFSLSEIQNLFLCDVPVYFSPTEEVDANSLPQYVVLILKNPLKIRSTAYNHVVISCPAGLTLDEEHPWRCELKTQDEINKTLQLPPSKEGEEPPLVPTMSGRVSDILTRTFKAIAKVPAYGGINKEYKSVLTSHSQSSMRCLFHGAEGLLYIVNSGFLYLHRPATRILFNEVARVELDESESGQATFQLTVFATGAKGDDKYVFSGIAKEEKNGLLSYLATKVKVVHTGGDAMESDDDDEKDDTSDEDESDDSDYDDSDTEDDDSSDDGGDHDSSRKRKREDKKHEKDKKHKKDKKHKKDKKHKKDKKHKKDKKHKKDKKHKKDKKHKKDRKHKKDKHEKSDA | soluble
MAEKLGPEKRHAFVHNGQKVFEWDQTLEEVNMYIELPKGVPTKLFHCAIQATHVEVGIRGNPPYLNFYICGSYFLYELSIQFSEQFDEWTPSSEDGEMHITLQKREKGKTWSSPIQGQGSLDPYAADQEQKRLMLQRFQEENPGFDFSQAQFTGTCPDPRTFMGGIRSD | soluble
